Laboratory results as given in the supplement of paper PMC9170038.

Tested on: MS2 coat protein
Test: apparent KD of MS2 coat protein; designed switch direction (-1 OFF switch, 1 ON switch): -1; higher = weaker reporter binding
Method in brief: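 An oligonucleotide input, 200 uM small-molecule ligand, or no input was present during titration of SNAP-549-labelled MS2 coat protein, which was doubled from 0.7 or 1.5 nM to 3 µM. Designed RNA switches had been transcribed on Illumina chips by stalled E. coli RNA polymerase. Apparent KD per design is the median over clusters of curves fitted to normalised cluster fluorescence.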

[1] = input ligand: microRNA oligo, concentration not stated
[2] = Eterna round: R95, input ligand: microRNA oligo, concentration not stated
[3] = Eterna round: R95, input ligand: FMN 200 uM
[4] = Eterna round: R95, input ligand: none

| Sequence | apparent KD of MS2 coat protein (input ligand: FMN 200 uM) [nM] | apparent KD of MS2 coat protein [1] [nM] | apparent KD of MS2 coat protein (input ligand: none) [nM] | apparent KD of MS2 coat protein [2] [nM] | apparent KD of MS2 coat protein [3] [nM] | apparent KD of MS2 coat protein [4] [nM] |
| --- | --- | --- | --- | --- | --- | --- |
| CAAAGUUGGUAAGGAUAUCCCACAUUAUUCUGACCCGUGCAAGCUACAUGAGGAUCACCCAUGUGGGAGAAGGUGCGUUAAAGA [Design 1] (Eterna round: R96, puzzle: Exclusion NG 2) | 93.4 | 52 | 94.3 |  |  |  |
| CAAAGUUGGUAAGGAUAUCCUACAUUAUUCUGACCCGUGCAAGCUACAUGAGGAUCACCCAUGUGGGAGAAGGUGCGUUAAAGU [Design 3] (Eterna round: R96, puzzle: Exclusion NG 2) | 23.4 | 17.4 | 21.7 |  |  |  |
| CAACACUGAGGAUAUGCUCGGCCGGUUCUCCGUGCCCAAGUACUUGAGGAUCACCCAAGUAGAAGGCAGUAAAA [Diedar] (Eterna round: R97, puzzle: Exclusion 2) | 18.1 |  | 16 |  |  |  |
| CAACUGUGAGGAUAUGGUGAGUAGUGCCUGAGCGCUGCUCACCAGAAGGCACAUGAGGAUCACCCAUGUAUGAC [JL-ex4-2.02 denovo] (puzzle: Exclusion 4) |  |  |  | 38.3 |  |  |
| CAAUAGGGAGGAUAUCCAAUAUAUGACAUGAGGAUCACCCAUGUUUCCACUCGUACCUCCGGAGAAGGCCCAUAAG [Ex5 #6] (Eterna round: R97, puzzle: Exclusion 5) | 21.3 |  | 24.1 |  |  |  |
| CAAUUCAGAGGAUAUGCGCAUAGAUAAGACUUUUUUUCUUAACAUGAGGAUCACCCAUGUAGAAGGCUGUAACC [Ex2 #63] (Eterna round: R97, puzzle: Exclusion 2) | 19.8 |  | 18.2 |  |  |  |
| CACAACAGAGGAUAUACAUGAGGAUCACCCAUGUGUUCCAGCUAGGAGACUAGCAAGUGUAGAAGGCUGUUGUG [Mat - Exclusion 3 - JL Mod - D10] (Eterna round: R97, puzzle: Exclusion 3) | 269 |  | 501 |  |  |  |
| CACCGGUGAGACAACAUGAGGAUCACCCAUGUGAACAGCUCACAGGAUAUCCAGGCACGAAAGAAGGAGAAGGGUGGCUGACUC [Veuson] (Eterna round: R96, puzzle: Exclusion NG 3) | 17.2 | 13.6 | 17.4 |  |  |  |
| CACCGUUAACUAGGAUAUAGUACAUGAGGAUCACCCAUGUAAUAAAUGAGAAUUUCGGAUGUAUGCUAGAAGGAGUAAAUCGGC [Ostricism 48 - Jieux - Exclusion NG 2] (Eterna round: R96, puzzle: Exclusion NG 2) |  | 45.5 |  |  |  |  |
| CACCGUUACAGAGGAUAUGGCACAUGAGGAUCACCCAUGUAAUAAAUGAGAAUUUCGGAUGUAUUCCAGAAGGCUGUAACCGGC [Ostricism 68 - Jieux - Exclusion NG 2] (Eterna round: R96, puzzle: Exclusion NG 2) | 41.2 | 19 | 35.6 |  |  |  |
| CACCGUUACAGAGGAUAUGUUACAUGAGGAUCACCCAUGUAAUAAAUGAGAAUUUCGAAUGUAAUACAGAAGGCUGGAAUCGGC [Ostracism 75 - Jieux - Exclusion NG 2] (Eterna round: R96, puzzle: Exclusion NG 2) | 38.3 | 15.8 | 21.3 |  |  |  |
| CAGAAACAUGAGGAUCACCCAUGUGAGGAUAUGCGUACGUUGUCCGUAGGCGACGUGCGCAGAAGGCACAAAGG [Mat - Mod of JL D84] (puzzle: Exclusion 1) |  |  |  | 111 |  |  |
| CAGACCCGCCUUGGUCACAUGAGGAUCACCCAUGUUUAGGUCUAGGAUAUGGCCGUCGAGGACGGCCAGAAGGAGAAUAUCAUG [Eternabot solution 34] (Eterna round: R96, puzzle: Exclusion NG 3) | 102 | 32.1 | 43 |  |  |  |
| CAGCUGAAUGUCAGGAUAUCUAGAGCCUCGGCUCUAGAGAAGGGACAUGAGGAUCACCCAUGUCACUCCAGCUG [BmEx4/3-B2] (Eterna round: R97, puzzle: Brourd's mod of Exclusion 4) | 22.4 |  | 17.8 |  |  |  |
| CAGCUGAAUGUGAGGAUAUGUCGAGCGAUAGCUCGAUAGAAGGCACAUGAGGAUCACCCAUGUCUCAACAGCUG [BmEx4/2-C4] (Eterna round: R97, puzzle: Brourd's mod of Exclusion 4) | 349 |  | 28.3 |  |  |  |
| CAGCUGAAUGUGAGGAUAUGUCUAGCUGCGGCUAGACAGAAGGCACAUGAGGAUCACCCAUGUCUCAACAGCUG [BmEx4/2-D3] (Eterna round: R97, puzzle: Brourd's mod of Exclusion 4) | 414 |  | 35.5 |  |  |  |
| CAGCUGUCAGGAUAUCGUGCAUACAACGAAAGUUCUAUGUGCGAGAAGGGACAUGAGGAUCACCCAUGUAAACG [Omei Ex4 A26] (Eterna round: R97, puzzle: Exclusion 4) | 101 |  | 57.4 |  |  |  |

| Sequence | apparent KD of MS2 coat protein (input ligand: FMN 200 uM) [nM] | apparent KD of MS2 coat protein [1] [nM] | apparent KD of MS2 coat protein (input ligand: none) [nM] | apparent KD of MS2 coat protein [2] [nM] | apparent KD of MS2 coat protein [3] [nM] | apparent KD of MS2 coat protein [4] [nM] |
| --- | --- | --- | --- | --- | --- | --- |
| CAGCUGUCAGGAUAUCGUGCAUACAACGAAAGUUCUAUGUGCGAGAAGGGACAUGAGGAUCACCCAUGUUUCCG [Omei Ex4 A23] (Eterna round: R97, puzzle: Exclusion 4) | 21.1 |  | 16.1 |  |  |  |
| CAGUACUGAGGAUAUACAUGAGGAUCACCCAUGUAAUAAGGUUAGGAAACUAACCUAUGUAGAAGGCAGUACUG [Eli x3 4.07] (Eterna round: R97, puzzle: Exclusion 3) | 13.2 |  | 14.7 |  |  |  |
| CAGUACUGAGGAUAUACAUGAGGAUCACCCAUGUGAUCUAGUGCACGCGUACGUGUACGUAGAAGGCAGUACUG [JL 3.27 m3] (Eterna round: R97, puzzle: Exclusion 3) | 562 |  | 46.8 |  |  |  |
| CAGUACUGAGGAUAUACAUGAGGAUCACCCAUGUGAUUUGGUGCACGCGUACGUGUACGUAGAAGGCAGUACUG [JL 3.27 m5] (Eterna round: R97, puzzle: Exclusion 3) | 363 |  | 24.2 |  |  |  |
| CAGUACUGAGGAUAUACAUGAGGAUCACCCAUGUGUUCCAGCUAGGAAUCUAGCAAAAGUAGAAGGCAGUACUG [salish99_ex3_r3_094x] (Eterna round: R96, puzzle: Exclusion 3) | 727 | 22.4 | 25.1 |  |  |  |
| CAGUACUGAGGAUAUACAUGAGGAUCACCCAUGUGUUCCAGCUAGGAAUCUAGCAAAAGUAGAAGGCAGUACUG [salish99_ex3_r3_094x] (puzzle: Exclusion 3) |  |  |  | 25.3 |  |  |
| CAGUACUGAGGAUAUACAUGAGGAUCACCCAUGUGUUCCAGCUAGGUAACUAGCAAAAGUAGAAGGCAGUACUG [salish99_ex3_r3_096x] (puzzle: Exclusion 3) |  |  |  | 25.7 |  |  |
| CAGUACUGAGGAUAUACAUGAGGAUCACCCAUGUGUUCCUGCUAGGAAACUAGCAAAAGUAGAAGGCAGUACUG [salish99_ex3_r3_098x] (Eterna round: R96, puzzle: Exclusion 3) | 516 | 26.1 | 27.5 |  |  |  |
| CAGUACUGAGGAUAUACAUGAGGAUCACCCAUGUGUUCCUGCUAGGAAACUAGCAAAAGUAGAAGGCAGUACUG [salish99_ex3_r3_098x] (puzzle: Exclusion 3) |  |  |  | 28.5 |  |  |
| CAGUACUGAGGAUAUACAUGAGGAUCACCCAUGUGUUCCUGCUAGGAAACUAGCAAGGGUAGAAGGCAGUACUG [Salish 065 m4] (Eterna round: R97, puzzle: Exclusion 3) | 132 |  | 16.4 |  |  |  |
| CAGUCCGUUUGAGGAUAUCUCUGGAUCGCCAUGAGAGAAGGCAAACAUGAGGAUCACCCAUGUGGUACCGACUCAACGUCGACA [Eternabot solution 10] (Eterna round: R96, puzzle: Exclusion NG 1) | 20.7 | 11.6 | 16 |  |  |  |
| CAUCCACAUGAGGAUCACCCAUGUGAGGAUAUGAUACUAUGUACUUCGGUACAUAGUAUCAGAAGGCACAGGUG [Ex1-3: 59] (puzzle: Exclusion 1) |  |  |  | 111 |  |  |
| CAUCCUAUUGUAGGAUAUCCGCUUAUUAUAUUGGGAGAAGGACAUGAGGAUCACCCAUGUGUGUAAUCAGAUGUGCGUGUUAAC [an other try] (Eterna round: R96, puzzle: Exclusion NG 1) | 173 | 66.1 | 82.2 |  |  |  |
| CAUGAUCUUCGGAUCAUGGACAUGAGGAUCACCCAUGUCACGAGCAGAUCCUCAUGCAAGCUUUUUGCUCGUCUUAU [Sensor v3 - Turn-off variant 1 - 35] (puzzle: Sensor v3, turn-off variant 1) |  |  |  | 8.73 | 62.9 | 85.2 |
| CAUGAUCUUCGGAUCAUGUACAUGAGGAUCACCCAUGUGACGAGUAGAUCCUCAAACAAGCUUUUUGCUCGUCUUAU [Sensor v3 - Turn-off variant 1 - 19] (puzzle: Sensor v3, turn-off variant 1) |  |  |  | 12.1 | 50.7 | 64.5 |
| CAUGAUUGGCGAGGAUAUUGUUCUACAUGGCGACGAGAAGGCGCCUGUCACAUGAGGAUCACCCAUGUGAGUCUGGUGAAUGAG [Ex NG1 #84] (Eterna round: R96, puzzle: Exclusion NG 1) | 27 | 16.6 | 22.2 |  |  |  |
| CAUGAUUGGGAAGGAUAUUGACCUAGUUAGCGACGAGAAGGUCCCUGUCACAUGAGGAUCACCCAUGUGAAUCUGGUGAAAGAG [Ex NG1 #100] (Eterna round: R96, puzzle: Exclusion NG 1) | 29.8 | 20.4 | 24.2 |  |  |  |
